Measured values as given in the DeepSol protein solubility set.

Experiment: soluble on expression in E. coli; label from the status in PepcDB or PDB records

Sequence	soluble on expression in E. coli
MKNLILVLGCFFFLISCQQTEKEKLEELVKNWNGKEVLFPTNPSFTLYGKTPVDFKIPVSDYKIVTYVDSLGCSSCKLQLPKWKEFMKYADSIVGYQIPVLFFLHPANVREMRSVLKQNRFDYPVCMDTEDTFNKVNKFPSQLNFQTFLLDKNNHVIAIGNPVHNYDVRELYIHLISGGIDGDSLSNMRTVIKIEEDMVDLGSFDWRREQHITFEIHNIGNNNLVVYDNKTSCGCTSVEYSKEPVQPGKSLAVKVTYKADHPEHFNKTIILYCNASASPLELKITGNAK	not soluble
GPGSMQPYGMSTSRTNRRPLVASRGGPNAPQRNYAMVTGPVDPSTSLIRYELPFSPADPKRSVKLRRRFGEPIEESVVDPNVRVVLDSFIPPRAWYDDDGVLWVQHASPKPASRTDTVETHEKLRRRLRETGAKRTGICPIRSLLLAECFLEVIRQVTVECWERGLVLLKIHAERVAAQTAHRELFESRVGYAFRLALKGEKDTSRVQQDLGKLKKRMEELAEEEKTLRQQCDEASARGEEEMLIVGKQHSDEVAAIKKEGILKRNQLEHMISMPSTP	soluble
MPTPDFVLQLREKIGNDPLFLPGVTAVVIKDVPEGAPITAVPEVLLVKRADNGEWTPVTGIVDPGEQPHSAAVREVKEETGLDVTVEALLGVGAVGPVTYPNGDVSHYMDTAMRCEVVGDSTPRIGDDENTEVRWFSVMQMPPMKPRFRLVVGDAVAQLRRPEGFRPRMGYEKRERRR	not soluble
MIIGYARVSSLDQNLERQLENLKTFGAEKIFTEKQSGKSIENRPILQKALNFVRMGDRFIVESIDRLGRNYNEVIHTVNYLKDKEVQLMITSLPMMNEVIGNPLLDKFMKDLIIQILAMVSEQERNESKRRQAQGIQVAKEKGVYKGRPLLYSPNAKDPQKRVIYHRVVEMLEEGQAISKIAKEVNITRQTVYRIKHDNGLSSHHHHHH	soluble
MIAYRSNQGVTRQRQQTKVFKLVSTYDKVAVKNAIRAAYRQVFERDLEPYIINSEFTALESKLSNNEINVKEFIEGLGTSELYMKEFYAPYPNTKVIEMGTKHFLGRAPLNQKEIQQYNQILASQGLKAFIGAMVNGMEYLQTFGEDTVPYRRFPTLPALEHHHHHH	not soluble
MSSFTHFNDQGRAKMVDISDKKATVRTAIACSSIVVTKEIYDKISHNEIGKGDVLAVAQIAGIMAAKRTSDIIPMCHPLLLKGVDVSFDWKQSDEQYRLLIEVKVKTEGSTGVEMEALTAASATALTVYDMCKAVDKGMIIGETYLLEKTGGKSGDYTRKS	not soluble
MIKVDHRPLYLQVIDKLKHDMEAGVYEEGEKLPSEFELSKQLGVSRATLREALRLLEEEGVVVRRHGVGTFVHTKPLFSAGIEELYSVTDMIRHADMEPGTIFLSSYQIEATDDDKRRFQTDNLDQLMMIERVRTADGVPIVYCLDKLPAELIGQHSVHEINSILDHLESGSDRMITHAVTTIEPIGFHEKVSEILECEAETGLLLLKQMHYDQYDTPVLYSYNYFRADKFTFHVVRKRVKA	not soluble
MGSDKIHHHHHHMHLDNEADHHSENKAEAPGIQPAVTRNVADISPQIAQCAVEWLVELQAADHDEATHEAFQRWLAAHPDHKLAWQHIETVNTRFNGLTSPLGSAVAKAVLTPRRSLKRRQIIKTLVVILFAGSTGWWADEKIPWRAWTADERTHIGQRRNITLADGSRVVLNTDTAINIRFTANERRLQLVRGEILVTTNQDSASIVRPFIVEIAQSELRPLGTRFTIHQQTTSNRLSVFEGAVEIRLRQDINYRHIVQAGEQVDFSNQGIHEIHPADDTSTAWSNGMIIASSMRLADFLAELDRHRPGKLNCDPAVADLRVSGTYPLTDPEDILDALQTTLPVKIQYFTRYWVTVRPAS	not soluble
MKKIQRTQTRDHITQMLRYEILSGNIKAGEELAQESIAEQLGLSRMPVREALQSLEQEGFLIRLPNRHMQVAHLEADRVSHIFRVIAAMAAEMFSLIPSEVGDALLIRAQALAVAEDKSCELECHAMLISYVNNRYLEKVYQQFLDGYVSYVILHLKKDNQESAQLFAELADVIRQGRRDEIGQVMQRYFLSLAEIMRQHMKDWESAEA	not soluble
MSKELFLEIGTEEIPAGFLPKAMADMEAIVTKELENARLAFGEVKTFATPRRLALVVKGLPTVQPDAEITALGPARNIAFGPDGTPSKAAEGFARGQGVDVASLTLVSTEKGEYVAAVRKESGRPVPDLLAEILPRLVGGIPFRKSMRWADLDVRFARPIHWIVALFDGVVVPFAFGNVQSGNVSRGHRFMANQPFPVRDFAHYLDECERHFVIPDPERRKETIRREIHRVAKTAGGHLLPDEGLLDEVAYLVEYPSVVHGTFSPDFLKVPREVLITSMRSHQRYFSIVDDAGKLMPGFITINNTLTEDPSVVVKGNERVLRARLSDARFFFEEDQKVKLETRVESLKNVVYQQKLGTSYEKMERFRALAEGLADLLNPAVKAKTSRAAFLCKADLVSGMVGEFPEVQGIMGREYALLQGEDAEVAAAIAEHYLPTQAGGDLPASDIGAFVSIADKLDTICGCFGVGLIPTGSADPYALRRSALGIINIILDRGCRLSLEGEIGKALELLSAKLTRPAAEVMADVLEFFRGRFVNLMADRYPADAVDAAIAAGFDD	not soluble
MAHHHHHHMLFYITPFPHSEVMRVEEQHQLFLAAKEAQLVRNEATQIILSDASHHSALHGAFVRVLVELPDQSDSYIIARVGAVTTGEPYDGFSHNTSTRTDKYLVLVLPHSLASINGTQYQLNSISNSPMTEDEFNLWLSTMQEPGSVPACAYRGVVEDTDAHLYLESSKIPSRQELLAIGGRIHALGSAASQNSRNPNSRRRRSNNGSSEQSLQQPEWMPKEQQMAIPRISSGNGATLGSIAGMQDYSAFMANPTGGAGPQNGANFNHTNSDPLPSTAGVTEGTNEPSLFVEPTTPRPASATEQELDLPSRHQIRQDILNKLNHRSVVFPQNIDELKLSQLRLVERDMIEYLEHVRDVLSSKQENCVVCLDHVPTVISLPCRHKVLCRLCASAVSTCPVCRSHLFELFEPKEI	not soluble
MTLHELLEKPVWKMTGEELLFLAQQGSTQQEGDTQDKAPAKEERHFVYGLSGLARLFGCSLPTANRIKQSGKIDRAITQIGRKIIIDADLALELAGRKVGGRR	not soluble
MKESLLTLTEKIMFTTTVLKPTITTPITMLITTMRTLVAMKIRHYWKMMAIKDRKIQIPPVKYQMELSIRTLEINLLKNVKETEANLLKRRTDRENKRHYEFGFFYNLRIHNIYIPTSFFFFNSIV	soluble
KNNPDPTIYPVLDWNDIKFQDVIGEGNFGQVLKARIKKDGLRMDAAIKRMKEYASKDDHRDFAGELEVLCKLGHHPNIINLLGACEHRGYLYLAIEYAPHGNLLDFLRKSRVLETDPAFAIANSTASTLSSQQLLHFAADVARGMDYLSQKQFIHRDLAARNILVGENYVAKIADFGLSRGQEVYVKKTMGRLPVRWMAIESLNYSVYTTNSDVWSYGVLLWEIVSLGGTPYCGMTCAELYEKLPQGYRLEKPLNCDDEVYDLMRQCWREKPYERPSFAQILVSLNRMLEERKTYVNTTLYEKFTYAGIDCSAEEAA	soluble
MGHHHHHHSHMAAPEAEVLSSAAVPDLEWYEKSEETHASQIELLETSSTQEPLNASEAFCPRDCMVPVVFPGPVSQEGCCQFTCELLKHIMYQRQQLPLPYEQLKHFYRKPSPQAEEMLKKKPRATTEVSSRKCQQALAELESVLSHLEDFFARTLVPRVLILLGGNALSPKEFYELDLSLLAPYSVDQSLSTAACLRRLFRAIFMADAFSELQAPPLMGTVVMAQGHRNCGEDWFRPKLNYRVPSRGHKLTVTLSCGRPSIRTTAWEDYIWFQAPVTFKGFRE	not soluble
MGSDKIHHHHHHMIPRLELRSITKCYPGTVANDAVSLSILPGEIHAVLGENGAGKSTLMKIIYGAAQADSGEIYCDGRRIEAHNPAISRSLGIEMVYQHFALFESVSVVENIALAVKGTFDLDRLAAEIKTLSARYGMPIDPHRRVHDLSVGERQRVEIVRCLLQSPKLLILDEPTSVLTPQAVVKLFETLRQLASEGCSIVYISHKLDEVQELCDTATVLRNGKVTGTAKPKESTSLELARMMVGSQLPQMHVSPSAPSAKPLLEVRGLSAPARDKYGTELTDVSLEVHGGEIVGLAGVSGNGQAELIALLSGERTHPRAETILIGGRPSGHLNAGERRKLGMAFVPEERLGRGAVPPHALWENAVLTAHRAGLVRNALVDRRRAGEFARHIIERFKVKANGPQASAQSLSGGNLQKFIVGRELTLEPKILLVSQPTWGVDVGAAAFIRQTLVDLSRGGAAVLVVSEELDELFEICDRLLVISNGRVSPPLIRKQTNREEIGLLMTRVGHGETRRSEVALED	not soluble
MAASAWCCLRCCRDGGTGHIPLKEMPAVQLDTQHMGTDVVIVKNGRRICGTGGCLASAPLHQNKSYFEFKIQSTGIWGIGVATQKVNLNQIPLGRDMHSLVMRNDGALYHNNEEKNRLPANSLPQEGDVVGITYDHVELNVYLNGKNMHCPASGIRGTVYPVVYVDDSAILDCQFSEFYHTPPPGFEKILFEQQIF	soluble
DEYLENLTDTPKHSKAYPIIKFEFTGRSVDAPLLSQASKKFGVELSILTSQIDYAGGVKFGYTIAEVEGDEDAITQTKVYLMENNVRVEVLGYVQ	not soluble
VNQQLNSATKLFSVKLGATRVIYHAGTAGATLSVSNPQNYPILVQSSVKAADKSSPAPFLVMPPLFRLEANQQSQLRIVRTGGDMPTDRETLQWVCIKAVPPENEPSDTQAKGATLDLNLSINACDKLIFRPDAVKGTPEDVAGNLRWVETGNKLKVENPTPFYMNLASVTVGGKPITGLEYVPPFADKTLNMPGSAHGDIEWRVITDFGGESHPFHYVLK	soluble
MGSDKIHHHHHHAFLTLKPVKTPFTMYSSVLGDFVITQLDENKQLHRYDTKGNTYTQQQVDSLLPSLYVRQLTADERFPDTICGKAVSPKDIQLTNFTFKSVPSAINAPQTGLYFLMESMSKRVDLKMPEDAFRFTDKGIEFIRMETNCIDEAKSKLFTDMLVQKGFAFPACYASGNPTTRKDYDEGYLVLDANHKLFHLKCTKGRPYVKAIQLPEGVLPEYVFITEFRSRRTLGYMVDSKHHFYIINSDGSLVKSALPGFDPAKDELTIFGNMFDWTVKLSTDKDDYYYALDATDYSLIKEHAYKDIRRSVPGLSFTSPDDKFVKPRF	not soluble
MGSDKIHHHHHHMYKMTDNELTQMGAVITTREIQQEPELWLETFKIYQEKKQAIDAFLGKIESEFNEPVRVVFTGAGSSAYVGDTAMPYLTENGDRNHFRFEAIDTTKIVSTPKQYLEKDTPTILVSFARSGNSPESVATVDIAEKYVKHLYQITITCAPEGKLALHAQEDDKNLVLMQPARSNDKGFAMTGSFSCMLLTTLLVFDAQHSDEQKETYVNAISKMGHEVIDRVDDIQKLVDTDFERIVYLGSGALGGLTREAQLKVLELTAGQKVTVFDTSMGFRHGPKSFVNSKTLLFDFVSNNAYTRQYDVDILEEVAGDEIAPVVMGIGVQSAHNFTGSNFNFANGDDSIPDGYMAFPDVMFAQTISLLSSIKVKNTPDTPSATGTVNRVVKGVTIHDFEG	not soluble
MSDGSVERGTKRAEDSLATHQLTVQYKRYYIDVNENTRGRYIKIAELGTNYKSRIILSIVAAKAIVSEISKMLALIDEPSTGEHAPKESSLIKSETLNVDGRKFYVDLKENVRGRFLRIAQMPMNPRQTRQQIAIPSDGIAEIHKVLTEYLAKFGEGHEQENTNTPKITAENKSFLFHSGKNDRGEFVRISEIKLNSGYRNAITVPMSALVDFRKELDNIIANQGK	not soluble
DVQKKTFTKWINARFSKSGKPPINDMFTDLKDGRKLLDLLEGLTGTSLPKERGSTRVHALNNVNRVLQVLHQNNVELVNIGGTDIVDGNHKLTLGLLWSIILHWQVKDVMKDVMSDLQQTNSEKILLSWVRQTTRPYSQVNVLNFTTSWTDGLAFNAVLHRHKPDLFSWDKVVKMSPIERLEHAFSKAQTYLGIEKLLDPEDVAVRLPDKKSIIMYLTSLFEVLPQ	soluble
